# Measurements: publication PMC3733117
# Biological target: DNA polymerase beta I260Q (rat, UniProt P06766 1-335, I260Q)
# Assay: X-ray crystallography
binder,measurement,value
cocrystallization primer/template (dsDNA) DNA 1: ATGTGAG DNA 2: CAAACTCACAT,binding result,binds
